Source: publication PMC3825537

Target: monomeric photosystem II complex (His-tagged PsbE) (Nicotiana tabacum | Nicotiana tabacum (endogenous in leaves)) (UniProt P69384)
Test: native gel or EMSA; BN-PAGE (3-12 % gradient, 205 V, 5 h, 4 °C) of PSII purified by protocol A

Substance “monomeric photosystem II complex (His-tagged PsbE) (from UniProt P69384 1-83; P69556 1-344)” has a stoichiometry N of 2.
